Reference: patent publication US20240270866A1 (Alector, published 2024)

T1: Mouse SIRPA D1 Fc (mouse, UniProt P97797 32-150, limits assumed)
T1 sequence: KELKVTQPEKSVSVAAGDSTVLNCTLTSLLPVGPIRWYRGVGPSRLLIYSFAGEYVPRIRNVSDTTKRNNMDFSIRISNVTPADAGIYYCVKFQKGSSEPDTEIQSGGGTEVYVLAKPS

T2: mouse SIRPA overexpressed on CHO cells (mouse, UniProt P97797 32-513)
T2 construct: also called CHO-muSIRPA
T2 sequence: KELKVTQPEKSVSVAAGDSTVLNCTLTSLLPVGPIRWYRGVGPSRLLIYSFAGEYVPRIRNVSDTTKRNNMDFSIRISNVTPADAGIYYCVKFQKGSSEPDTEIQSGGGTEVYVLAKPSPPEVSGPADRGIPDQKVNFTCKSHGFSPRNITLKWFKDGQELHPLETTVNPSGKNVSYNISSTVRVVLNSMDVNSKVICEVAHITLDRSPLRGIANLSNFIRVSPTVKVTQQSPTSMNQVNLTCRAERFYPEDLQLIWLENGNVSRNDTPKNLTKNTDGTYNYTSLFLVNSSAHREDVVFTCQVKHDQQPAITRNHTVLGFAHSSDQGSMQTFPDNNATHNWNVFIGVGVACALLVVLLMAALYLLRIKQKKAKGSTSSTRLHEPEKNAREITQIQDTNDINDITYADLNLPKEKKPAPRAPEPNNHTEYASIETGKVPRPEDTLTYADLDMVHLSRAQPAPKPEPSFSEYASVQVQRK


What was measured:
[1] = target: T3, Human SIRPA D1 Fc (human, UniProt P78324 32-137); experiment: ForteBio IgG avid;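 further: antibody IgG captured on AHQ biosensors, then 100 nM Fc-fused SIRP antigen applied for 3 min, followed by 3 min buffer dissociation, kinetics fitted to a 1:1 model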
T3 construct: not shown: human IgG1 Fc

[2] = target: Human SIRPb D1 Fc (human, UniProt O00241 30-148, limits assumed); experiment: ForteBio IgG avid;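 further: antibody IgG captured on AHQ biosensors, then 100 nM Fc-fused SIRP antigen applied for 3 min, followed by 3 min buffer dissociation, kinetics fitted to a 1:1 model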
[3] = target: T1, Mouse SIRPA D1 Fc; experiment: ForteBio IgG avid;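 further: antibody IgG captured on AHQ biosensors, then 100 nM Fc-fused SIRP antigen applied for 3 min, followed by 3 min buffer dissociation, kinetics fitted to a 1:1 model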
[4] = target: T4, human SIRPA overexpressed on CHO cells (human, UniProt P78324 31-504); experiment: flow, CHO-huSIRPA;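 further: Anti-SIRPA antibodies applied at 1 µg/mL for 1 h on ice, binding read by flow cytometry using a PE-labelled secondary antibody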
T4 construct: also called CHO-huSIRPA
Procedure: (§1) Initial characterization of anti-SIRPA antibodies of the present disclosure involved determining their ability to bind cell lines overexpressing human or mouse SIRPA. Cells were harvested, plated at 10⁶/ml in a 96 well plate, washed, and incubated in 100 ul PBS containing 1 ug/ml Mab for 1 hour in ice. Cells were then washed twice and incubated in 100 ul PBS containing 5 ug/ml PE-conjugated secondary antibody for 30 minutes in ice. Cells were washed twice in cold PBS and acquired on a BD FACS Canto. Data analysis and calculation of mean fluorescence intensity (MFI) values or % positive cells was performed with FlowJo® (TreeStar) software version 10.0.7.

[5] = target: T2, mouse SIRPA overexpressed on CHO cells; experiment: flow, CHO-muSIRPA;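 on relative MFI: antibody binding measured by flow cytometry: cells stained with 1 ug/ml test antibody for 1 h on ice, detected with PE-labelled secondary antibody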
Procedure: as §1

[6] = target: T2, mouse SIRPA overexpressed on CHO cells; experiment: flow, CHO-muSIRPA; remark: listed apart in the source;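 on relative MFI: antibody binding measured by flow cytometry: cells stained with 1 ug/ml test antibody for 1 h on ice, detected with PE-labelled secondary antibody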
[7] = target: T5, human SIRPA Fc fusion antigen (human, UniProt P78324 31-373); experiment: ForteBio IgG avid;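 further: ForteBio sensor-based avid binding of anti-SIRPA antibodies in IgG format, with the binding partner in solution at 100 nM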
T5 construct: heterologous signal peptide; not shown: human IgG1 Fc

[8] = target: T6, human SIRPβ1 Fc fusion antigen (human, UniProt O00241 30-371); experiment: ForteBio IgG avid;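 further: ForteBio sensor-based avid binding of anti-SIRPA antibodies in IgG format, with the binding partner in solution at 100 nM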
T6 construct: not shown: human IgG1 Fc

[9] = target: T5, human SIRPA Fc fusion antigen; experiment: ForteBio Fab monovalent
Procedure: Briefly, ForteBio affinity measurements were performed by loading immunoglobulins (IgGs) on-line onto AHQ sensors. Sensors were equilibrated off-line in assay buffer for 30 min and then monitored on-line for 60 seconds for baseline establishment. For avid binding measurement, sensors with loaded IgGs were exposed to 100 nM antigen (human SIRPA or SIRPβ1 Fc fusion) for 3 min, afterwards they were transferred to assay buffer for 3 min for off-rate measurement. […] Monovalent binding measurements were obtained by loading human SIRPA Fc fusion antigens to AHQ sensor and followed by exposure to 100 nM anti-SIRPA antibody Fab.
Additional monovalent measurements were made by loading biotinylated human SIRPA monomer to SA sensor followed by exposure to 100 nM Fab in solution. Kinetics data were fit using a 1:1 binding model in the data analysis software provided by ForteBio.

Sequence of Human SIRPb D1 Fc (O00241 30-148 limits assumed): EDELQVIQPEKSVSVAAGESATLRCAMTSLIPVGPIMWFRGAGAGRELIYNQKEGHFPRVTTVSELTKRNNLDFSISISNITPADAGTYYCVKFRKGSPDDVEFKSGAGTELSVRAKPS
T6 sequence (O00241 30-371 limits assumed): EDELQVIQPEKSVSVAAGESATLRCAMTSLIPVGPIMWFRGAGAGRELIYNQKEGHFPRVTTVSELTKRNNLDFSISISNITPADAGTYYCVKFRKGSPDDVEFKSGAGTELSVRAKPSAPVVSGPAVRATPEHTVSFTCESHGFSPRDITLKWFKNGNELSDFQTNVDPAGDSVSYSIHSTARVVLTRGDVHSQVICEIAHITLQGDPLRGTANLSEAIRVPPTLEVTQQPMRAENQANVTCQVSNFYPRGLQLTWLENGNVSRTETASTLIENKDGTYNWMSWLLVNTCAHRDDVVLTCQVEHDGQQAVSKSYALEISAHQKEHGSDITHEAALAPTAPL

Kd [1] | binding result [2] | binding result [3] | relative MFI [4] | relative MFI [5] | binding result [6] | Binder | other results
13.8 nM | no binding (tested: 100 nM) | no binding (tested: 100 nM) | 1.1 fold over background | 0.574 fold over background | no binding (tested: 1 ug/ml) | SA-26 (antibody, V domains shown, IgG) VH: QVQLQQWGAGLLKPSETLSLTCAVYGGSFSGYYWSWIRQPPGKGLEWIGEIDHSGSTNYNPSLKSRVTISVDTSKNQFSLKLSSVTAADTAVYYCARDRLDGSLGIYGMDVWGQGTTVTVSS VL: DIQMTQSPSSLSASVGDRVTITCRASQSINSYLNWYQQKPGKAPKLLIYAASSLQSGVPSRFSGSGSGTDFTLTISSLQPEDFATYYCQQSPSDPWTFGGGTKVEIK | –
– | – | – | – | – | – | SA-56-94 (antibody, V domains shown, IgG; also called SA-94) VH: EVQLVESGGGVVQPGRSLRLSCAASGFTFSYYGMSWVRQAPGKGLEWVASIWVDGSNKYYADSVKGRFTISRDNSKNTLYLQMNSLRAEDTAVYYCAVGTETYSGPNWFDPWGQGTLVTVSS VL: DIQMTQSPSSVSASVGDRVTITCRASQGISSWLAWYQQKPGKAPKLLIYAASSLQSGVPSRFSGSGSGTDFTLTISSLQPEDFATYYCQQAIYFPITFGGGTKVEIK | Kd [7]: 0.566 nM; binding result [8]: no binding (tested: 100 nM)
– | – | – | – | – | – | SA-56-93 (antibody, V domains shown, IgG) VH: EVQLLESGGGVVQPGRSLRLSCAASGFTFSYYGMSWVRQAPGKGLEWVASIWVDGSNKYYADSVKGRFTISRDNSKNALYLQMNSLRAEDTAVYYCAVSRETYSGPNWFDPWGQGTLVTVSS VL: DIQMTQSPSSVSASVGDRVTITCRASQGISSWLAWYQQKPGKAPKLLIYAASSLQSGVPSRFSGSGSGTDFTLTISSLQPEDFATYYCQQAIYFPITFGGGTKVEIK | Kd [7]: 0.862 nM; binding result [8]: no binding (tested: 100 nM)
– | – | – | – | – | – | SA-56-96 (antibody, V domains shown, IgG) VH: EVQLLESGGGVVQPGRSLRLSCAASGFTFSSYAMGWVRQAPGKGLEWVAVIWVDGSLKYYADSVKGRFTISRDNSKNTLYLQMNSLRAEDTAVYYCATGRETYSGPNWFDPWGQGTLVTVSS VL: DIQMTQSPSSVSASVGDRVTITCRASQGISSWLAWYQQKPGKAPKLLIYAASSLQSGVPSRFSGSGSGTDFTLTISSLQPEDFATYYCQQAIYFPITFGGGTKVEIK | Kd [7]: 1.04 nM; binding result [8]: no binding (tested: 100 nM)
– | – | – | – | – | – | SA-56-92 (antibody, V domains shown, IgG) VH: EVQLVESGGGVVQPGRSLRLSCAASGFTFSYYGMSWVRQAPGKGLEWVASIWVDGSNKYYADSVKGRFTISRDNSKNTLYLQMDSLRAEDTAVYYCATGVETYSGPNWFDPWGQGTLVTVSS VL: DIQMTQSPSSVSASVGDRVTITCRASQGISSWLAWYQQKPGKAPKLLIYAASSLQSGVPSRFSGSGSGTDFTLTISSLQPEDFATYYCQQAIYFPITFGGGTKVEIK | Kd [7]: 0.365 nM; binding result [8]: no binding (tested: 100 nM)
– | – | – | – | – | – | SA-56-95 (antibody, V domains shown, IgG) VH: EVQLLESGGGVVQPGRSLRLSCAASGFTFAHYGMAWVRQAPGKGLEWVAVIWVDGSPKYYADSVKGRFTISRDNSKNTLYLQMNSLRAEDTAVYYCAVARETYSGPNWFDPWGQGTLVTVSS VL: DIQMTQSPSSVSASVGDRVTITCRASQGISSWLAWYQQKPGKAPKLLIYAASSLQSGVPSRFSGSGSGTDFTLTISSLQPEDFATYYCQQAIYFPITFGGGTKVEIK | Kd [7]: 1.06 nM; binding result [8]: no binding (tested: 100 nM)
– | – | – | – | – | – | SA-13-68 Fab (Fab, V domains shown, papain Fab) VH: EVQLLESGGGLVQPGGSLRLSCAASGFTFTEYAMSWVRQAPGKRLEWVSAISGSGGSTYYADSVKGRFTISRDNSKNTLYLQMSSLRAEDTAVYYCARDNIQWGPHFYWGQGTLVTVSS VL: DIQMTQSPSSLSASVGDRVTITCRASQSISSYLNWYQQKPGKAPKLLIYAASSLQSGVPSRFSGSGSGTDFTLTISSLQPEDFATYYCQQGYIYPPTFGGGTKVEIK | Kd [9]: 81.5 nM
13 nM | no binding (tested: 100 nM) | no binding (tested: 100 nM) | 52 fold over background | 0.548 fold over background | no binding (tested: 1 ug/ml) | SA-12 (antibody, V domains shown, IgG) VH: QVQLVQSGAEVKKPGASVKVSCKASGYTFTSYYIHWVRQAPGQGLEWMGIINPSGGSTSYAQKFQGRVTMTRDTSTSTVYMELSSLRSEDTAVYYCARAPGSWFYWGQGTLVTVSS VL: EIVLTQSPATLSLSPGERATLSCRASQSVSSYLAWYQQKPGQAPRLLIYDASNRATGIPARFSGSGSGTDFTLTISSLEPEDFAVYYCQQRTNFPITFGGGTKVEIK | –
38 nM | – | – | 21.1 fold over background | 0.533 fold over background | – | SA-23 (antibody, V domains shown, IgG) VH: QVQLVQSGAEVKKPGASVKVSCKASGYTFTSYGISWVRQAPGQGLEWMGWISTYNGNTNYAQKLQGRVTMTTDTSTSTAYMELRSLRSDDTAVYYCARDQGTGTTVDLDLWGRGTLVTVSS VL: not shown | –
31 nM | no binding (tested: 100 nM) | no binding (tested: 100 nM) | 24.4 fold over background | 0.732 fold over background | no binding (tested: 1 ug/ml) | SA-14 (antibody, V domains shown, IgG) VH: EVQLVESGGGLVKPGGSLRLSCAASGFTFSSYSMNWVRQAPGKGLEWVSSISSSSSYIYYADSVKGRFTISRDNAKNSLYLQMNSLRAEDTAVYYCARDGSMYYGDPMDVWGQGTTVTVSS VL: DIQLTQSPSSLSASVGDRVTITCQASQDISNFLNWYQQKPGKAPKLLIYDASNLETGVPSRFSGSGSGTDFTFTISSLQPEDIAKYYCQQFINFPLTFGGGTKVEIK | –
– | – | – | – | – | – | SA-8-64 Fab (Fab, V domains shown, papain Fab) VH: QVQLVESGGGLVKPGGSLRLSCAASGFTFSSYSMHWVRQAPGKGLEWVSSISSSDSWIYYADSVKGRFTISRDNAKNSLYLQMNSLRAEDTAVYYCAKEPRSYWHGYGMDVWGQGTTVTVSS VL: not shown | Kd [9]: 27.7 nM
– | – | – | – | – | – | SA-8-62 Fab (Fab, V domains shown, papain Fab) VH: QVQLVESGGGLVKPGGSLRLSCAASGFTFSSYSMHWVRQAPGKGLEWVSSISSSDSWIYYADSVKGRFTISRDNAKNSLYLQMDSLRAEDTAVYYCAKERVDYWHGYGMDVWGQGTTVTVSS VL: not shown | Kd [9]: 8.92 nM
– | – | – | – | – | – | SA-8-67 Fab (Fab, V domains shown, papain Fab) VH: EVQLVESGGGLVKPGGSLRLSCAASGFTFSSYSMHWVRQAPGKGLEWVSSISSSPSHIYYADSVKGRFTISRDNAKNSLYLQMNSLRAEDTAVYYCAKEPRSYWHGYGMDVWGQGTTVTVSS VL: not shown | Kd [9]: 131 nM
4.02 nM | no binding (tested: 100 nM) | no binding (tested: 100 nM) | 0.592 fold over background | 0.539 fold over background | no binding (tested: 1 ug/ml) | SA-16 (antibody, V domains shown, IgG) VH: QVQLQQWGAGLLKPSETLSLTCAVYGGSFSGYYWSWIRQPPGKGLEWIGEIDHSGSTNYNPSLKSRVTISVDTSKNQFSLKLSSVTAADTAVYYCARDLGPPGPHLDVWGQGTMVTVSS VL: not shown | –
– | – | no binding (tested: 100 nM) | – | 0.601 fold over background | no binding (tested: 1 ug/ml) | SA-19 (antibody, V domains shown, IgG; also called SA-19 (parental)) VH: QVQLVESGGGVVQPGRSLRLSCAASGFTFSSYGMHWVRQAPGKGLEWVAVISYDGSNKYYADSVKGRFTISRDNSKNTLYLQMNSLRAEDTAVYYCARDLTKYTLGFAFDIWGQGTMVTVSS VL: not shown | binding result [1]: binds
24.2 nM | no binding (tested: 100 nM) | no binding (tested: 100 nM) | 8.27 fold over background | 0.586 fold over background | no binding (tested: 1 ug/ml) | SA-25 (antibody, V domains shown, IgG) VH: QVQLVQSGAEVKKPGSSVKVSCKASGGTFSSYAISWVRQAPGQGLEWMGSIIPIFGTANYAQKFQGRVTITADESTSTAYMELSSLRSEDTAVYYCARDRGYPRYSYLDLWGRGTLVTVSS VL: not shown | –
22 nM | no binding (tested: 100 nM) | no binding (tested: 100 nM) | 1.39 fold over background | 0.619 fold over background | no binding (tested: 1 ug/ml) | SA-22 (antibody, V domains shown, IgG) VH: EVQLVESGGGLVKPGGSLRLSCAASGFTFSSYSMNWVRQAPGKGLEWVSSISSSSSYIYYADSVKGRFTISRDNAKNSLYLQMNSLRAEDTAVYYCARDPTDSSSYYDVWGQGTLVTVSS VL: not shown | –
